The values that follow come from patent US20210054076A1 (Chugai, published 2021).

The target in assay [1] is T1, human CLDN6 (human, UniProt P56747 1-220).
T1 construct: 45 is entered here, 44 is equally possible; also called hCLDN6; human Claudin 6
T1 sequence: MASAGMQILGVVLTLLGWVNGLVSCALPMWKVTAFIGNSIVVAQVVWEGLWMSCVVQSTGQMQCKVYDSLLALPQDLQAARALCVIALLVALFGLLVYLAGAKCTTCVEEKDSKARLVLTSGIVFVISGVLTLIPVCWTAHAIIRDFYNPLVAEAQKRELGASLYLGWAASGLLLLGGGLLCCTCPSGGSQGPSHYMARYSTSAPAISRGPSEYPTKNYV
Kind of assay: FACS on Ba/F3 transfectant, antibody 20 micro g/ml, FITC anti-human IgG. As to the method: (§1) To evaluate the binding activity and specificity of the generated CLDN6-TRABs against CLDN6 and other Claudin family antigens, FACS analysis was conducted as follows. Ba/F3 transfectants stably express a kind of protein selected from human CLDN3 (hCLDN3), human CLDN4 (hCLDN4), human CLDN6 (hCLDN6), human CLDN9 (hCLDN9), mouse CLDN3 (mCLDN3), mouse CLDN4 (mCLDN4) and mouse CLDN6 (mCLDN6), were generated using similar method described in WO2008/087978, and named BaF3_hCLDN3, BaF3_hCLDN4, BaF3_hCLDN6, BaF3_hCLDN9, BaF3 mCLDN3, BaF3 mCLDN4, BaF3 mCLDN6, respectively. Each of the CLDN6-TRABs (CH01/CD3, CH02/CD3, CH03/CD3, CH04/CD3) was incubated with the Ba/F3 transfectants at an antibody concentration of 20 micro g/ml in FACS buffer (0.5% BSA containing autoMACS Rinsing Solution, Miltenyl Biotec). Binding activities of each CLDN6-TRAB to the Claudin family proteins (hCLDN3, hCLDN4, hCLDN6, hCLDN9, mCLDN3, mCLDN4, mCLDN6) were examined by incubation of FITC-conjugated goat anti human IgG (BeckmanCoulter), represented as Geo-mean value. Sample processing was conducted on FACSVerse (BD).
(§2) Claudin family proteins have two extracellular domains. The sequence of the first extracellular domain in human CLDN9 is almost the same compared with the first extracellular domain of human CLDN6. For the second extracellular domain of human CLDN9, there are only two amino acids different from the ones at their corresponding positions in human CLDN6 (FIG. 2). The glutamine at position 156 of human Claudin 6 (position 156 in the sequence shown in SEQ ID NO: 44 or 45) was substituted to leucine to make a human CLDN6 mutant comprising the same amino acid as human Claudin 9 at position 156. This human CLDN6 mutant was named as hCLDN6(Q156L) (SEQ ID NO: 53). Ba/F3 transfectant stably express hCLDN6(Q156L) was generated using similar method described in WO2008/087978. The established Ba/F3 transfectant was named BaF3_hCLDN6(Q156L). Binding activity of the generated CLDN6-TRABs against BaF3_hCLDN6(Q156L) was measured using the above mentioned FACS method and the results are shown in FIG. 1 and Table 3.

For the next assay, the target named is T2, hCLDN6(Q156L) (human, UniProt P56747 1-220).
T2 construct: Stably expressed on Ba/F3 cells; also called human CLDN6 mutant; BaF3_hCLDN6(Q156L)
T2 chain: T1 sequence with Q156L
The description is as above. The procedure: as §1, §2

Another assay concerns the target T3, human CLDN3 (human, UniProt O15551 1-220).
T3 construct: whole, on cells; also called hCLDN3; BaF3_hCLDN3
T3 sequence (looked up): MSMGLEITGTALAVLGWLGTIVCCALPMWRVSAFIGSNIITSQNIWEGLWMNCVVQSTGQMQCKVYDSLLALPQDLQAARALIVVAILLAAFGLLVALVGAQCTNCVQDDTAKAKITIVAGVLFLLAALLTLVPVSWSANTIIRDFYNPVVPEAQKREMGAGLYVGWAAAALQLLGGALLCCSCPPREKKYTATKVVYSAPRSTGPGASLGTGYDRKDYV
The description is as above. As to the method: as §1, §2

The next assay has as its target T4, mouse CLDN4 (mouse, UniProt O35054 1-210).
T4 construct: whole, on cells; also called mCLDN4; BaF3_mCLDN4
T4 sequence (looked up): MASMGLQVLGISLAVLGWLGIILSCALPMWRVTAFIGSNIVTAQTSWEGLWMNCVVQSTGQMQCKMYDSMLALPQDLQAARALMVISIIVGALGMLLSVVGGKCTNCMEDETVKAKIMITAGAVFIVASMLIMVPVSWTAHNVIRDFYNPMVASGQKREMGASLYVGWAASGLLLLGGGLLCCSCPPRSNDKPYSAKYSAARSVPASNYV
Described as above. As to the method:
as §1, §2

A further assay deals with T5, human CLDN4 (human, UniProt O14493 1-209).
T5 construct: whole, on cells; also called hCLDN4; BaF3_hCLDN4
T5 sequence (looked up): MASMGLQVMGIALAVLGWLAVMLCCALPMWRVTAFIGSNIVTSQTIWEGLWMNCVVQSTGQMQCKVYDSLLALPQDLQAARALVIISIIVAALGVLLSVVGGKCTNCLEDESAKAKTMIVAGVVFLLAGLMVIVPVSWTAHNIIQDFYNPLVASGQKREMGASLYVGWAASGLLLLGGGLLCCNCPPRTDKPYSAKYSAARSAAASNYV
Described as above. The procedure:
as §1, §2

A further assay deals with T6, mouse CLDN3 (mouse, UniProt Q9Z0G9 1-219).
T6 construct: whole, on cells; also called mCLDN3; BaF3_mCLDN3
T6 sequence (looked up): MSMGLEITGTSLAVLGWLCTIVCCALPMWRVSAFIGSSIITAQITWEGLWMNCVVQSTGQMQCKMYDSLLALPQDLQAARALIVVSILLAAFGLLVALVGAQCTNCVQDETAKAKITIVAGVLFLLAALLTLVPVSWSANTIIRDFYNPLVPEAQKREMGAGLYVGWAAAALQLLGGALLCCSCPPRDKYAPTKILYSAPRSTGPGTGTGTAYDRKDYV
Described as above. The procedure: as §1, §2

The target of assay [2] is T1, human CLDN6. Kind of assay: cell-based or functional assay.

Positions count from the first letter of the chain named.

B1: CH01/CD3 (bispecific antibody, human IgG1, kappa, N297A)
heavy 1: EVKLVESGGGLVKPGGSLKLSCAASGFTFNSYTMSWVRQTPAKRLEWVVTISSGGGRTYYPDSVKGRFTISRDNARNTLYLQMSSLRSEDTAMYYCIRGDYRYDGFAYWGQGTLVTVSTASTKGPSVFPLAPSSKSTSGGTAALGCLVKDYFPEPVTVSWNSGALTSGVHTFPAVLQSSGLYSLSSVVTVPSSSLGTQTYICNVNHKPSNTKVDKKVEPKSCDKTHTCPPCPAPELRGGPKVFLFPPKPKDTLMISRTPEVTCVVVDVSHEDPEVKFNWYVDGVEVHNAKTKPREEQYASTYRVVSVLTVLHQDWLNGKEYKCKVSNKALPAPIEKTISKAKGQPREPQVYTLPPSREEMTKNQVSLTCLVKGFYPSDIAVEWESNGQPENNYKTTPPYLDSDGSFFLYSKLTVDKSRWQQGNVFSCSVMHEALHNHYTQESLSLSP
light 1: DIQMTQSPASLSASVGETVTITCRASENIDSYLAWYQQKQGKSPQLLVYASTLLVDGVPSRFSGSRSGTQFSLKINSLQSEDVARYYCQHYYSIPYTFGSGTKLEIKRTVAAPSVFIFPPSDEQLKSGTASVVCLLNNFYPREAKVQWKVDNALQSGNSQESVTEQDSKDSTYSLSSTLTLSKADYEKHKVYACEVTHQGLSSPVTKSFNRGEC
heavy 2: QVQLVESGGGVVQPGGSLRLSCAASGFTFSNAWMHWVRQAPGKGLEWVAQIKDKSQNYATYVAESVKGRFTISRADSKNSIYLQMNSLKTEDTAVYYCRYVHYAAGYGVDIWGQGTTVTVSSASTKGPSVFPLAPSSKSTSGGTAALGCLVKDYFPEPVTVSWNSGALTSGVHTFPAVLQSSGLYSLSSVVTVPSSSLGTQTYICNVNHKPSNTKVDKKVEPKSCDKTHTCPPCPAPELRGGPKVFLFPPKPKDTLMISRTPEVTCVVVDVSHEDPEVKFNWYVDGVEVHNAKTKPREEQYASTYRVVSVLTVLHQDWLNGKEYKCKVSNKALPAPIEKTISKAKGQPREPQVYTLPPSRKEMTKNQVSLTCLVKGFYPSDIAVEWESNGQPENNYKTTPPYLDSDGSFFLYSKLTVDKSRWQQGNVFSCSVMHEALHNHYTQKSLSLSP
light 2: DIVMTQSPLSLPVTPGEPASISCRSSQPLVHSNRNTYLHWYQQKPGQAPRLLIYKVSNRFSGVPDRFSGSGSGTDFTLKISRVEAEDVGVYYCGQGTQVPYTFGQGTKLEIKRTVAAPSVFIFPPSDEQLKSGTASVVCLLNNFYPREAKVQWKVDNALQSGNSQESVTEQDSKDSTYSLSSTLTLSKADYEKHKVYACEVTHQGLSSPVTKSFNRGEC
notes: Made by Fab arm exchange of the bivalent anti-CLDN6 antibody CH01 with the bivalent anti-CD3 antibody CD3-1; human IgG1 constant region; One anti-CLDN6 arm and one anti-CD3 arm; also called CLDN6-TRAB; CLDN6-targeted T-cell redirecting bispecific antibody
As to B1, the “Geo-mean value of FACS” value in the assay with human CLDN6 [1] was 4480; with hCLDN6(Q156L), 114; with human CLDN3, 37; in the assay with mouse CLDN4 it was 31; with human CLDN4 it was 51; with mouse CLDN3 it was 26. The “EC50 (read off the curve), Jurkat/NFAT-RE luciferase reporter, target cells HuH-7” value in the assay with human CLDN6 [2] is about 0.09 nM.
